Tests used:
[1] = test system: HeLa Kyoto; assay: solubility in G1/S (NP-40 vs SDS abundance) (log2 ratio); higher = more soluble; settings: cell cycle stage: G1/S
[2] = test system: HeLa Kyoto; assay: thermal stability score vs G1/S (z-score of summed log2 fold changes over temperatures); higher = more thermally stable than in G1/S
[3] = test system: HeLa Kyoto; assay: melting temperature (median over replicates), in situ; higher = more thermally stable
[4] = test system: HeLa Kyoto; assay: solubility change mitosis vs G1/S (difference of NP-40 vs SDS log2 ratios) (log2 ratio difference); higher = more soluble in mitosis
[5] = cell cycle stage: early G1 (4.5 h after nocodazole release)
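For melting temperature (median over replicates), in situ in this document: HeLa Kyoto cells synchronized by double thymidine or nocodazole block, proteins quantified by TMT10plex mass spectrometry, three independent biological replicates.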
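For solubility change mitosis vs G1/S (difference of NP-40 vs SDS log2 ratios) in this document: synchronized HeLa Kyoto cells (double thymidine block for G1/S, nocodazole release for mitosis), protein amounts in NP-40 versus SDS lysates quantified by mass spectrometry, three biological replicates.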
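For solubility in G1/S (NP-40 vs SDS abundance) in this document: HeLa Kyoto cells arrested at G1/S by double thymidine block, proteins quantified by TMT10plex mass spectrometry in mild NP-40 versus SDS extracts, three biological replicates.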
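For thermal stability score vs G1/S (z-score of summed log2 fold changes over temperatures) in this document: synchronized HeLa Kyoto cells, proteins quantified by TMT10plex mass spectrometry, three biological replicates, mitosis taken 0.5 h after nocodazole release, G1/S directly after double thymidine block.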

| Sequence | solubility in G1/S (log2) [1] | thermal stability score [2, 5] | thermal stability score ([2]; cell cycle stage: mitosis) | melting temperature ([3]; cell cycle stage: G1/S) [°C] | melting temperature ([3]; cell cycle stage: mitosis) [°C] | solubility change mitosis (log2) [4] |
| --- | --- | --- | --- | --- | --- | --- |
| MSPWSWFLLQTLCLLPTGAASRRGAPGTANCELKPQQSELNSFLWTIKRDPPSYFFGTIHVPYTRVWDFIPDNSKEAFLQSSIVYFELDLTDPYTISALTSCQMLPQGENLQDVLPRDIYCRLKRHLEYVKLMMPLWMTPDQRGKGLYADYLFNAIAGNWERKRPVWVMLMVNSLTEVDIKSRGVPVLDLFLAQEAERLRKQTGAVEKVEEQCHPLNGLNFSQVIFALNQTLLQQESLRAGSLQIPYTTEDLIKHYNCGDLSSVILSHDSSQVPNFINATLPPQERITAQEIDSYLRRELIYKRNERIGKRVKALLEEFPDKGFFFAFGAGHFMGNNTVLDVLRREGYEVEHAPAGRPIHKGKSKKTSTRPTLSTIFAPKVPTLEVPAPEAVSSGHSTLPPLVSRPGSADTPSEAEQRFRKKRRRSQRRPRLRQFSDLWVRLEESDIVPQLQVPVLDRHISTELRLPRRGHSHHSQMVASSACLSLWTPVFWVLVLAFQTETPLL [TRABD2A] | 0.299 | 1.43 | 0.133 | 53.9 | 53.4 | -0.031 |
| MSGCGLFLRTTAAARACRGLVVSTANRRLLRTSPPVRAFAKELFLGKIKKKEVFPFPEVSQDELNEINQFLGPVEKFFTEEVDSRKIDQEGKIPDETLEKLKSLGLFGLQVPEEYGGLGFSNTMYSRLGEIISMDGSITVTLAAHQAIGLKGIILAGTEEQKAKYLPKLASGEHIAAFCLTEPASGSDAASIRSRATLSEDKKHYILNGSKVWITNGGLANIFTVFAKTEVVDSDGSVKDKITAFIVERDFGGVTNGKPEDKLGIRGSNTCEVHFENTKIPVENILGEVGDGFKVAMNILNSGRFSMGSVVAGLLKRLIEMTAEYACTRKQFNKRLSEFGLIQEKFALMAQKAYVMESMTYLTAGMLDQPGFPDCSIEAAMVKVFSSEAAWQCVSEALQILGGLGYTRDYPYERILRDTRILLIFEGTNEILRMYIALTGLQHAGRILTTRIHELKQAKVSTVMDTVGRRLRDSLGRTVDLGLTGNHGVVHPSLADSANKFEENTYCFGRTVETLLLRFGKTIMEEQLVLKRVANILINLYGMTAVLSRASRSIRIGLRNHDHEVLLANTFCVEAYLQNLFSLSQLDKYAPENLDEQIKKVSQQILEKRAYICAHPLDRTC [ACAD9] | -0.06 | 4.01 | 3.04 | 54.6 | 54.7 | -0.164 |
| MATPSAAFEALMNGVTSWDVPEDAVPCELLLIGEASFPVMVNDMGQVLIAASSYGRGRLVVVSHEDYLVEAQLTPFLLNAVGWLCSSPGAPIGVHPSLAPLAKILEGSGVDAKVEPEVKDSLGVYCIDAYNETMTEKLVKFMKCGGGLLIGGQAWDWANQGEDERVLFTFPGNLVTSVAGIYFTDNKGDTSFFKVSKKMPKIPVLVSCEDDLSDDREELLHGISELDISNSDCFPSQLLVHGALAFPLGLDSYHGCVIAAARYGRGRVVVTGHKVLFTVGKLGPFLLNAVRWLDGGRRGKVVVQTELRTLSGLLAVGGIDTSIEPNLTSDASVYCFEPVSEVGVKELQEFVAEGGGLFVGAQAWWWAFKNPGVSPLARFPGNLLLNPFGISITSQSLNPGPFRTPKAGIRTYHFRSTLAEFQVIMGRKRGNVEKGWLAKLGPDGAAFLQIPAEEIPAYMSVHRLLRKLLSRYRLPVATRENPVINDCCRGAMLSLATGLAHSGSDLSLLVPEIEDMYSSPYLRPSESPITVEVNCTNPGTRYCWMSTGLYIPGRQIIEVSLPEAAASADLKIQIGCHTDDLTRASKLFRGPLVINRCCLDKPTKSITCLWGGLLYIIVPQNSKLGSVPVTVKGAVHAPYYKLGETTLEEWKRRIQENPGPWGELATDNIILTVPTANLRTLENPEPLLRLWDEVMQAVARLGAEPFPLRLPQRIVADVQISVGWMHAGYPIMCHLESVQELINEKLIRTKGLWGPVHELGRNQQRQEWEFPPHTTEATCNLWCVYVHETVLGIPRSRANIALWPPVREKRVRIYLSKGPNVKNWNAWTALETYLQLQEAFGWEPFIRLFTEYRNQTNLPTENVDKMNLWVKMFSHQVQKNLAPFFEAWAWPIQKEVATSLAYLPEWKENIMKLYLLTQMPH [TCAF1] | -0.143 | 0.502 | 2.06 | 49.9 | 49.8 | -0.185 |
| MNPNCARCGKIVYPTEKVNCLDKFWHKACFHCETCKMTLNMKNYKGYEKKPYCNAHYPKQSFTMVADTPENLRLKQQSELQSQVRYKEEFEKNKGKGFSVVADTPELQRIKKTQDQISNIKYHEEFEKSRMGPSGGEGMEPERRDSQDGSSYRRPLEQQQPHHIPTSAPVYQQPQQQPVAQSYGGYKEPAAPVSIQRSAPGGGGKRYRAVYDYSAADEDEVSFQDGDTIVNVQQIDDGWMYGTVERTGDTGMLPANYVEAI [LASP1] | 0.0591 | -2.02 | -2.68 | 58.7 | 60.5 | 0.0867 |
| MAAPGLRLGAGRLFEMPAVLERLSRYNSTSQAFAEVLRLPKQQLRKLLYPLQEVERFLAPYGRQDLHLRIFDPSPEDIARADNIFTATERNRIDYVSSAVRIDHAPDLPRPEVCFIGRSNVGKSSLIKALFSLAPEVEVRVSKKPGHTKKMNFFKVGKHFTVVDMPGYGFRAPEDFVDMVETYLKERRNLKRTFLLVDSVVGIQKTDNIAIEMCEEFALPYVIVLTKIDKSSKGHLLKQVLQIQKFVNMKTQGCFPQLFPVSAVTFSGIHLLRCFIASVTGSLD [GTPBP8] | 0.0451 | -0.696 | 0.105 | 50.8 | 52.8 | -0.0931 |
| MTAEDSTAAMSSDSAAGSSAKVPEGVAGAPNEAALLALMERTGYSMVQENGQRKYGGPPPGWEGPHPQRGCEVFVGKIPRDVYEDELVPVFEAVGRIYELRLMMDFDGKNRGYAFVMYCHKHEAKRAVRELNNYEIRPGRLLGVCCSVDNCRLFIGGIPKMKKREEILEEIAKVTEGVLDVIVYASAADKMKNRGFAFVEYESHRAAAMARRKLMPGRIQLWGHQIAVDWAEPEIDVDEDVMETVKILYVRNLMIETTEDTIKKSFGQFNPGCVERVKKIRDYAFVHFTSREDAVHAMNNLNGTELEGSCLEVTLAKPVDKEQYSRYQKAARGGGAAEAAQQPSYVYSCDPYTLAYYGYPYNALIGPNRDYFVKAGSIRGRGRGAAGNRAPGPRGSYLGGYSAGRGIYSRYHEGKGKQQEKGYELVPNLEIPTVNPVAIKPGTVAIPAIGAQYSMFPAAPAPKMIEDGKIHTVEHMISPIAVQPDPASAAAAAAAAAAAAAAVIPTVSTPPPFQGRPITPVYTVAPNVQRIPTAGIYGASYVPFAAPATATIATLQKNAAAAAAMYGGYAGYIPQAFPAAAIQVPIPDVYQTY [RBM47] | -0.0256 | 0.77 | 1.83 | 48.2 | 47.4 | -0.0191 |
| MSSSPLSKKRRVSGPDPKPGSNCSPAQSVLSEVPSVPTNGMAKNGSEADIDEGLYSRQLYVLGHEAMKRLQTSSVLVSGLRGLGVEIAKNIILGGVKAVTLHDQGTAQWADLSSQFYLREEDIGKNRAEVSQPRLAELNSYVPVTAYTGPLVEDFLSGFQVVVLTNTPLEDQLRVGEFCHNRGIKLVVADTRGLFGQLFCDFGEEMILTDSNGEQPLSAMVSMVTKDNPGVVTCLDEARHGFESGDFVSFSEVQGMVELNGNQPMEIKVLGPYTFSICDTSNFSDYIRGGIVSQVKVPKKISFKSLVASLAEPDFVVTDFAKFSRPAQLHIGFQALHQFCAQHGRPPRPRNEEDAAELVALAQAVNARALPAVQQNNLDEDLIRKLAYVAAGDLAPINAFIGGLAAQEVMKACSGKFMPIMQWLYFDALECLPEDKEVLTEDKCLQRQNRYDGQVAVFGSDLQEKLGKQKYFLVGAGAIGCELLKNFAMIGLGCGEGGEIIVTDMDTIEKSNLNRQFLFRPWDVTKLKSDTAAAAVRQMNPHIRVTSHQNRVGPDTERIYDDDFFQNLDGVANALDNVDARMYMDRRCVYYRKPLLESGTLGTKGNVQVVIPFLTESYSSSQDPPEKSIPICTLKNFPNAIEHTLQWARDEFEGLFKQPAENVNQYLTDPKFVERTLRLAGTQPLEVLEAVQRSLVLQRPQTWADCVTWACHHWHTQYSNNIRQLLHNFPPDQLTSSGAPFWSGPKRCPHPLTFDVNNPLHLDYVMAAANLFAQTYGLTGSQDRAAVATFLQSVQVPEFTPKSGVKIHVSDQELQSANASVDDSRLEELKATLPSPDKLPGFKMYPIDFEKDDDSNFHMDFIVAASNLRAENYDIPSADRHKSKLIAGKIIPAIATTTAAVVGLVCLELYKVVQGHRQLDSYKNGFLNLALPFFGFSEPLAAPRHQYYNQEWTLWDRFEVQGLQPNGEEMTLKQFLDYFKTEHKLEITMLSQGVSMLYSFFMPAAKLKERLDQPMTEIVSRVSKRKLGRHVRALVLELCCNDESGEDVEVPYVRYTIR [UBA1] | 0.11 | 2.94 | 5.38 | 49.5 | 50 | -0.171 |
| MALTRPVRLFSLVTRLLLAPRRGLTVRSPDEPLPVVRIPVALQRQLEQRQSRRRNLPRPVLVRPGPLLVSARRPELNQPARLTLGRWERAPLASQGWKSRRARRDHFSIERAQQEAPAVRKLSSKGSFADLGLEPRVLHALQEAAPEVVQPTTVQSSTIPSLLRGRHVVCAAETGSGKTLSYLLPLLQRLLGQPSLDSLPIPAPRGLVLVPSRELAQQVRAVAQPLGRSLGLLVRDLEGGHGMRRIRLQLSRQPSADVLVATPGALWKALKSRLISLEQLSFLVLDEADTLLDESFLELVDYILEKSHIAEGPADLEDPFNPKAQLVLVGATFPEGVGQLLNKVASPDAVTTITSSKLHCIMPHVKQTFLRLKGADKVAELVHILKHRDRAERTGPSGTVLVFCNSSSTVNWLGYILDDHKIQHLRLQGQMPALMRVGIFQSFQKSSRDILLCTDIASRGLDSTGVELVVNYDFPPTLQDYIHRAGRVGRVGSEVPGTVISFVTHPWDVSLVQKIELAARRRRSLPGLASSVKEPLPQAT [DDX28] | -0.336 | -0.0521 | 1.54 | 50 | 50.9 | 0.0712 |
| MALSRGLPRELAEAVAGGRVLVVGAGGIGCELLKNLVLTGFSHIDLIDLDTIDVSNLNRQFLFQKKHVGRSKAQVAKESVLQFYPKANIVAYHDSIMNPDYNVEFFRQFILVMNALDNRAARNHVNRMCLAADVPLIESGTAGYLGQVTTIKKGVTECYECHPKPTQRTFPGCTIRNTPSEPIHCIVWAKYLFNQLFGEEDADQEVSPDRADPEAAWEPTEAEARARASNEDGDIKRISTKEWAKSTGYDPVKLFTKLFKDDIRYLLTMDKLWRKRKPPVPLDWAEVQSQGEETNASDQQNEPQLGLKDQQVLDVKSYARLFSKSIETLRVHLAEKGDGAELIWDKDDPSAMDFVTSAANLRMHIFSMNMKSRFDIKSMAGNIIPAIATTNAVIAGLIVLEGLKILSGKIDQCRTIFLNKQPNPRKKLLVPCALDPPNPNCYVCASKPEVTVRLNVHKVTVLTLQDKIVKEKFAMVAPDVQIEDGKGTILISSEEGETEANNHKKLSEFGIRNGSRLQADDFLQDYTLLINILHSEDLGKDVEFEVVGDAPEKVGPKQAEDAAKSITNGSDDGAQPSTSTAQEQDDVLIVDSDEEDSSNNADVSEEERSRKRKLDEKENLSAKRSRIEQKEELDDVIALD [UBA2] | 0.146 | -0.2 | 0.883 | 52.2 | 52 | -0.204 |
| MSRRYDSRTTIFSPEGRLYQVEYAMEAIGHAGTCLGILANDGVLLAAERRNIHKLLDEVFFSEKIYKLNEDMACSVAGITSDANVLTNELRLIAQRYLLQYQEPIPCEQLVTALCDIKQAYTQFGGKRPFGVSLLYIGWDKHYGFQLYQSDPSGNYGGWKATCIGNNSAAAVSMLKQDYKEGEMTLKSALALAIKVLNKTMDVSKLSAEKVEIATLTRENGKTVIRVLKQKEVEQLIKKHEEEEAKAEREKKEKEQKEKDK [PSMA4] | 0.45 | -0.647 | -0.541 | 59.5 | 60.5 | -0.0614 |
